# Experiments:
# [1] = test system: K4 kissing-loop RNA reporter; assay: apparent KD of K4 kissing-loop reporter; higher = weaker reporter binding; details: Eterna round: R107;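 further: bound reporter read as fluorescence of individual clusters on recovered sequencing chips by microscopy, with normalized cluster intensities fitted with a binding model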
# Method: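 RNA-MaP round R107: designed RNA switches with theophylline, tryptophan, arginine or FMN aptamers are transcribed on-chip within common flanks. They are titrated with a labelled K4 kissing-loop RNA reporter in RNA-MaP buffer (100 mM Tris pH 7.5, 80 mM KCl, 4 mM MgCl2), without ligand or with the indicated ligand. Median apparent KD per design.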
# MS2 coat protein = assay: apparent KD of MS2 coat protein; designed switch direction (-1 OFF switch, 1 ON switch): -1; higher = weaker reporter binding
# Outline: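 The reported apparent KD is a per-design median over clusters, from curve fits of normalised cluster fluorescence. Protein titrations used SNAP-549-labelled MS2 coat protein, doubled from 0.7 or 1.5 nM to 3 µM, in Tris-HCl pH 7.5 buffer with KCl, MgCl2, BSA, DTT, tRNA and Tween-20, with no input, 200 uM small-molecule ligand, or an oligonucleotide input. The RNA switches were transcribed on Illumina chips by stalled E. coli RNA polymerase.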
# [2] = input ligand: microRNA oligo, concentration not stated
# [3] = Eterna round: R95, input ligand: FMN 200 uM
# [4] = Eterna round: R95, input ligand: microRNA oligo, concentration not stated
# [5] = Eterna round: R95, input ligand: none
Sequence,apparent KD of MS2 coat protein (MS2 coat protein; input ligand: FMN 200 uM) [µM],apparent KD of MS2 coat protein (MS2 coat protein; input ligand: none) [µM],apparent KD of MS2 coat protein (MS2 coat protein; [3]) [µM],apparent KD of MS2 coat protein (MS2 coat protein; [4]) [µM],apparent KD of MS2 coat protein (MS2 coat protein; [5]) [µM],further results
AUGUAUGAAUUAGGAUAUCGUUAGCCUUGCAUAUAUAUGAUAAAUGGAUAUGUCGUAGUGAUGUUACGAGAAGGAGUGUGGAGUA [KL-XFMN-B5],,,,,,apparent KD of K4 kissing-loop reporter ([1]; input ligand: FMN 200 uM): 0.0446 µM; apparent KD of K4 kissing-loop reporter ([1]; input ligand: arginine 13.2 mM): 0.0505 µM; apparent KD of K4 kissing-loop reporter ([1]; input ligand: none): 0.0389 µM; apparent KD of K4 kissing-loop reporter ([1]; input ligand: theophylline 20 uM): 0.0634 µM; apparent KD of K4 kissing-loop reporter ([1]; input ligand: tryptophan 2.4 mM): 0.0302 µM
"AUAAAUAAUGCAGGAUAUGUCGGCGAAAGGCCGGCAGAAGGGCAGCGUGGAUGUAUCCUGAACAUGAGGAUCACCCAUGUGAAA [Ederisbi] (Eterna round: R96, puzzle: Exclusion NG 1)",0.209,0.347,,,,apparent KD of MS2 coat protein (MS2 coat protein; [2]): 0.168 µM
"AUGGUUCGGUCAGGAUAUCGUAGAUUGAAUAGUAUGAUUUACAUGAGGAUCACCCAUGUUACAUACGAGAAGGGACCGAAUCAU [JR_ExcNG2_Sub024] (Eterna round: R96, puzzle: Exclusion NG 2)",,,,,,apparent KD of MS2 coat protein (MS2 coat protein; [2]): 0.0104 µM
"GGUACUAACACGAAAGUGUUAGUACUAUAAGCUUGUGUUACAUGAGGAUCACCCAUGUCCUCAUAAGCUCGUCUUAU [JL-sv3-2.16 mat747 mod] (puzzle: Sensor v3, turn-off variant 2)",,,0.0867,0.0196,0.108,
"GGAUAAAAGACAGGAUAUGAGGAGAGAGAGAGAUCAGAAGGGUCACAUGAGGAUCACCCAUGUGAGUUCUCGAUAAGAAACACG [Prohibition 54 - Jieux - Exclusion NG 1] (Eterna round: R96, puzzle: Exclusion NG 1)",0.0155,0.0184,,,,apparent KD of MS2 coat protein (MS2 coat protein; [2]): 0.0127 µM
UCGGUGCGAGGAUAUACGUUUGCGCGUUUUCGUUUGCGCGUACAUGAGGAUCACCCAUGUAGAAGGCGCGCGGC [Apr-15 SS2-12] (puzzle: Exclusion 2),,,,0.0118,,
"UAUGGUUAAGUCAGGAUAUGCACGAAGAGAACAAAGCAGAAGGGACAUGAGGAUCACCCAUGUAAAGUCGUGUU [Ex4 #76] (Eterna round: R97, puzzle: Brourd's mod of Exclusion 4)",0.0284,0.032,,,,
CAUCUGUGAGGAUAUGGUGAGUAGUGCCUGAGCGCUGCUCACCAGAAGGCACAUGAGGAUCACCCAUGUAUGAA [Mat - Exclusion 4 - Mod of JL - D1] (puzzle: Exclusion 4),,,,0.0469,,
"AGUACUAACGCGAAAGUGUUAGUACAAUAAGCUUGUGAAACAUGAGGAUCACCCAUGUCCUCAUAAGCUCGUCUUAU [salish99_TOv2_r3_023] (puzzle: Sensor v3, turn-off variant 2)",,,0.019,0.549,0.0161,
"GAUGUACAUGAGGAUCACCCAUGUCAGGAUAUUAGGCGCCCUCAUAGCAGGGCCAUGAUGAGAAGGGACAGUAC [Eternabot (L2) Solution 33] (Eterna round: R97, puzzle: Exclusion 1)",0.0676,0.0664,,,,
"UUAAUUAGCUCGCUAGAUCCUCACAUGAGGAUCACCCAUGUGCAGGAUAUCAGCUCGAUUAGAGCUGAGAAGGGCACUGCGAGC [ExNG3/10-A1] (Eterna round: R96, puzzle: Exclusion NG 3)",0.16,0.104,,,,apparent KD of MS2 coat protein (MS2 coat protein; [2]): 0.0895 µM
UUUUAACAUGAGGAUCACCCAUGUGAGGAUAUGGUAUUUUUUUUUUUUUUUUUUUUUUCCAGAAGGCACAUUUU [My solution] (puzzle: Exclusion 1),,,0.0384,0.0351,0.0749,
AUUUUAAUAUAGGAUAUCGAAAUUAUUAUUUAACGAGAAGGAUAAACAUGAGGAUCACCCAUGUGGUAUCAUGG [JMFs Solution 1] (puzzle: Exclusion 6),,,0.138,0.134,0.196,
CCAGCGUGUGUGAGGAUAUGCUGGUCCUUGGAUCAGCAGAAGGCACAUGAGGAUCACCCAUGUGAGUACGUUGG [JL bmx4 3.34] (puzzle: Brourd's mod of Exclusion 4),,,,0.015,,
GUGGAGUAAGGAUAUACAUGAGGAUCACCCAUGUGAGGGUAUGAGAAGGGAAUGAGAGGUAGAAGGUACGAGGA [JR_Exclu3_Sub069] (puzzle: Exclusion 3),,,0.108,0.106,0.186,

# — the supplement of paper PMC9170038
